These results are taken from the RNAGym collection of RNA variant scans (doi:10.7554/elife.80360).

First the molecules themselves.
B1: CPEB3 Ribozyme (parent)
chain: GGGGGCCACAGCAGAAGCGUUCACGUCGCGGCCCCUGUCAGAUUCUGGUGAAUCUGCGAAUUCUGCUGU

The data set covers variants of B1. The data set can be described thus: self-cleavage, relative activity (ratio to wild type); higher = more cleavage; co-transcriptional.
Turning to C9G C54A, the self-cleavage turned out to be 0.931.
Consider C9G C54U, for which the self-cleavage was 1.05.
Regarding C9G G68C, the self-cleavage is 0.997.
Take C9G G68A: the self-cleavage came out at 1.05.
The result for C9G G68U reads 1.02; that for A10C A16U, 0.818; that for A10C A16C, 0.252.
Regarding A10C A16G, the self-cleavage was 0.967.
With C9G U67C, the self-cleavage stood at 0.976.
The value for C9G U67G was 1.05; that for A10C U49C was 1.04.
The value for A10C U49A was 1.02.
As for A10C G31U, the self-cleavage worked out at 0.913.
Regarding A10C G31A, the self-cleavage was determined as 0.968.
As for A10C G25A, the self-cleavage worked out at 0.212.
The result for A10C G25C reads 0.103.
The result for C9G G50C reads 1.01; that for A10G A23G, 0.832.
With A10G A23U, the self-cleavage is 0.748.
The value for A10C A60U was 0.484; that for A10C A60G was 0.853; that for A10C A60C was 0.28.
In the case of C9G G48A, the self-cleavage came to 1.01.
The value for C9G G48C was 0.99; that for C9U A23C was 0.982; that for C9U A23G was 1.01.
The value for C9U A23U was 1.01; that for A10C C24U was 0.891.
The value for A10C C24A was 0.738; that for A10G A42G was 0.636.
In the case of C9U U46A, the self-cleavage is 0.964.
With C9U U46C, the self-cleavage was determined as 1.02.
C9U U46G: the self-cleavage amounted to 1.04.
The result for C9U C32G reads 0.838; that for C9U C32A, 1.02.
Turning to C9G C12U, the self-cleavage is 1.
The value for C9G C12G was 0.878.
Consider A10C G19A, for which the self-cleavage came out at 0.162.
On to A10C G47A, for which the self-cleavage is 1.04.
For A10C G47U, the self-cleavage turned out to be 1.01.
The value for C9U U44A was 1.02; that for C9U U44C was 0.997.
The result for C9U U20C reads 0.186; that for C9U U20A, 0.148; that for C9G C22U, 0.445.
The value for C9G C22G was 0.257; that for A10C U69A was 1.06.
Regarding A10C U69G, the self-cleavage was found to be 1.05.
The result for A10C U69C reads 1.05.
The result for C9U G37A reads 0.364; that for C9U C35U, 0.982.
The result for C9U C35A reads 0.342; that for C9U C35G, 0.76.
Consider C9U G41A, for which the self-cleavage worked out at 0.923.
The result for C9G G31U reads 0.97.
The result for C9G G31C reads 0.363; that for A10C U26A, 0.943.
Regarding A10C U26C, the self-cleavage was determined as 1.02.
The result for A10C U26G reads 0.885.
The value for C9G U55G was 0.865; that for C9G U55C was 0.877; that for C9G C57G was 0.334.
The value for C9G C57A was 0.402.
Regarding A10C G28A, the self-cleavage was found to be 0.125.
On to A10C G28U, for which the self-cleavage came to 0.12.
On to A10C U61G, for which the self-cleavage was determined as 0.768.
The value for A10C U61C was 0.763; that for A10C U61A was 0.937; that for C9G G14U was 0.756.
For C9G G14C, the self-cleavage was 0.565.
The result for C9G G37U reads 0.323.
The result for A10G A16U reads 0.452.
The value for A10G A16G was 0.894; that for A10G A16C was 0.145; that for C9U C54A was 0.978.
C9U C54G: the self-cleavage worked out at 0.994.
As to A10C G11A, the self-cleavage came to 0.887.
The result for A10C G11U reads 0.913; that for C9U A42G, 0.96.
Consider C9U A42C, for which the self-cleavage stood at 1.03.
The value for C9U A42U was 0.997; that for A10C C57A was 0.351; that for A10C C57G was 0.292.
The value for A10C C57U was 0.275; that for C9U U53A was 0.961; that for C9U U53G was 0.984.
The value for C9U G30U was 0.837; that for C9U G11A was 0.971; that for C9U G11C was 0.927.
For A10C U20C, the self-cleavage was 0.286.
As for A10C U20A, the self-cleavage stood at 0.205.
The value for A10C U20G was 0.0821; that for A10C C39G was 0.987; that for A10C C39A was 0.861.
The result for C9U G31C reads 0.38.
The value for C9U G31A was 1; that for C9U G31U was 0.977; that for C9G G41C was 0.964.
For the variant C9G G41U, the self-cleavage was 0.888.
As for C9U G50U, the self-cleavage was 1.
In the case of C9U G50C, the self-cleavage is 1.02.
For the variant A10C U62C, the self-cleavage was 0.72.
The value for A10C U62G was 0.772; that for A10C A13G was 0.911.
In the case of A10C A13C, the self-cleavage was found to be 0.638.
A10C A13U: the self-cleavage was determined as 0.484.
Take C9U G14A: the self-cleavage is 0.878.
The result for C9U U64G reads 0.981; that for C9U U64C, 0.999.
The result for C9U U64A reads 1.04; that for A10C A42U, 0.921.
As to A10C G50A, the self-cleavage stood at 0.971.
With A10C U38C, the self-cleavage came to 1.
The value for C9G U21C was 0.943; that for C9G U21A was 0.998.
The result for C9G U21G reads 0.696.
For the variant A10C G65A, the self-cleavage worked out at 0.798.
The value for A10C G65U was 0.655; that for A10C G65C was 0.637.
The value for C9G U69A was 1.04; that for C9G U69G was 1.05.
The value for C9G U64A was 0.884.
As to C9G U64C, the self-cleavage was determined as 0.864.
Consider C9G C45G, for which the self-cleavage is 0.996.
The result for C9G U43A reads 1.02.
As to C9G U43C, the self-cleavage turned out to be 0.996.
The result for C9G U43G reads 0.955; that for C9U G65C, 0.802; that for C9U G65U, 0.845.
The result for C9U C45A reads 1.01; that for C9U C45U, 1.01; that for C9G C24A, 0.872.
As to C9G C24U, the self-cleavage turned out to be 0.9.
Take C9G C18G: the self-cleavage is 0.2.
The value for C9G C18A was 0.256; that for A10C C12G was 0.659.
Take A10C C12A: the self-cleavage was 0.439.
With A10C C12U, the self-cleavage was determined as 0.882.
The value for C9U U43A was 0.971.
The value for C9U U43C was 1.02; that for C9U A16C was 0.531.
With C9U G28A, the self-cleavage is 0.227.
The result for C9U G28C reads 0.173; that for A10G, 0.94.
Turning to A10C, the self-cleavage is 1.01.
The value for C9U G25C was 0.146; that for C9U G25U was 0.192; that for A10C U21A was 0.959.
With C9G G19A, the self-cleavage is 0.106.
As to C9U U69A, the self-cleavage is 1.03.
The value for C9U U69G was 1.07.
C9G C29G: the self-cleavage is 0.695.
On to C9G C29A, for which the self-cleavage is 0.84.
Regarding C9G C29U, the self-cleavage was 0.897.
C9U U36G: the self-cleavage is 0.214.
Regarding A10C G48A, the self-cleavage came out at 1.02.
As for C9G U44C, the self-cleavage amounted to 0.954.
The value for C9G U44A was 0.956; that for C9U A52C was 1.01.
The result for C9U A52U reads 0.996; that for C9U U21C, 0.999; that for C9U C18U, 0.927.
As for C9U C18G, the self-cleavage was found to be 0.283.
The result for C9U C18A reads 0.355.
The result for C9U U49A reads 0.99; that for C9U U49C, 1.01; that for C9U U49G, 0.957.
